± gives the standard deviation of the averaged measurements.
Test: total protein half-life in vivo (active degradation + dilution); higher = more stable protein
[1] = E. coli NCM3722 delta-clpP delta-lon delta-hslV, growth: N-lim chemostat, doubling time 6 h
[2] = wild type E. coli NCM3722, growth: C-lim chemostat, doubling time 6 h
[3] = wild type E. coli NCM3722, growth: N-lim chemostat, doubling time 12 h
[4] = wild type E. coli NCM3722, growth: C-lim chemostat, doubling time 12 h
[5] = E. coli NCM3722 delta-clpP, growth: N-lim chemostat, doubling time 6 h
[6] = E. coli NCM3722 delta-lon, growth: N-lim chemostat, doubling time 6 h
[7] = E. coli NCM3722 delta-smpB, growth: N-lim chemostat, doubling time 6 h
[8] = wild type E. coli NCM3722, growth: C-lim chemostat, doubling time 3 h
[9] = wild type E. coli NCM3722, growth: N-lim chemostat, doubling time 6 h
[10] = wild type E. coli NCM3722, growth: P-lim chemostat, doubling time 6 h
[11] = wild type E. coli NCM3722, growth: P-lim chemostat, doubling time 12 h
[12] = E. coli NCM3722 delta-hslV, growth: N-lim chemostat, doubling time 6 h

Sequence	total protein half-life in vivo [1] [h]	total protein half-life in vivo [2] [h]	total protein half-life in vivo [3] [h]	total protein half-life in vivo [4] [h]	total protein half-life in vivo [5] [h]	total protein half-life in vivo [6] [h]	total protein half-life in vivo [7] [h]	total protein half-life in vivo [8] [h]	total protein half-life in vivo [9] [h]	total protein half-life in vivo [10] [h]	total protein half-life in vivo [11] [h]	total protein half-life in vivo [12] [h]
MKTKIPDAVLAAEVSRRGLVKTTAIGGLAMASSALTLPFSRIAHAVDSAIPTKSDEKVIWSACTVNCGSRCPLRMHVVDGEIKYVETDNTGDDNYDGLHQVRACLRGRSMRRRVYNPDRLKYPMKRVGARGEGKFERISWEEAYDIIATNMQRLIKEYGNESIYLNYGTGTLGGTMTRSWPPGNTLVARLMNCCGGYLNHYGDYSSAQIAEGLNYTYGGWADGNSPSDIENSKLVVLFGNNPGETRMSGGGVTYYLEQARQKSNARMIIIDPRYTDTGAGREDEWIPIRPGTDAALVNGLAYVMITENLVDQAFLDKYCVGYDEKTLPASAPKNGHYKAYILGEGPDGVAKTPEWASQITGVPADKIIKLAREIGSTKPAFISQGWGPQRHANGEIATRAISMLAILTGNVGINGGNSGAREGSYSLPFVRMPTLENPIQTSISMFMWTDAIERGPEMTALRDGVRGKDKLDVPIKMIWNYAGNCLINQHSEINRTHEILQDDKKCELIVVIDCHMTSSAKYADILLPDCTASEQMDFALDASCGNMSYVIFNDQVIKPRFECKTIYEMTSELAKRLGVEQQFTEGRTQEEWMRHLYAQSREAIPELPTFEEFRKQGIFKKRDPQGHHVAYKAFREDPQANPLTTPSGKIEIYSQALADIAATWELPEGDVIDPLPIYTPGFESYQDPLNKQYPLQLTGFHYKSRVHSTYGNVDVLKAACRQEMWINPLDAQKRGIHNGDKVRIFNDRGEVHIEAKVTPRMMPGVVALGEGAWYDPDAKRVDKGGCINVLTTQRPSPLAKGNPSHTNLVQVEKV	5.175 ± 0.011	5.91	6.94									
MKTKLMTLQDATGFFRDGMTIMVGGFMGIGTPSRLVEALLESGVRDLTLIANDTAFVDTGIGPLIVNGRVRKVIASHIGTNPETGRRMISGEMDVVLVPQGTLIEQIRCGGAGLGGFLTPTGVGTVVEEGKQTLTLDGKTWLLERPLRADLALIRAHRCDTLGNLTYQLSARNFNPLIALAADITLVEPDELVETGELQPDHIVTPGAVIDHIIVSQESK				8.54								
MKTLIRKFSRTAITVVLVILAFIAIFNAWVYYTESPWTRDARFSADVVAIAPDVSGLITQVNVHDNQLVKKGQILFTIDQPRYQKALEEAQADVAYYQVLAQEKRQEAGRRNRLGVQAMSREEIDQANNVLQTVLHQLAKAQATRDLAKLDLERTVIRAPADGWVTNLNVYTGEFITRGSTAVALVKQNSFYVLAYMEETKLEGVRPGYRAEITPLGSNKVLKGTVDSVAAGVTNASSTRDDKGMATIDSNLEWVRLAQRVPVRIRLDNQQENIWPAGTTATVVVTGKQDRDESQDSFFRKMAHRLREFG					5.51							
MKTLIVSTVLAFITFSAQAAAFQVTSNEIKTGEQLTTSHVFSGFGCEGGNTSPSLTWSGVPEGTKSFAVTVYDPDAPTGSGWWHWTVVNIPATVTYLPVDAGRRDGTKLPTGAVQGRNDFGYAGFGGACPPKGDKPHHYQFKVWALKTEKIPVDSNSSGALVGYMLNANKIATAEITPVYEIK	4.45 ± 0.4	3.37	10.9 ± 0.48	7.12 ± 3.5	4.74 ± 0.75	5.18 ± 0.93	5.046 ± 0.013	2.24 ± 0.28	6.15 ± 0.075	6.28 ± 1.6	10.3 ± 1.9	
MKTLLIIDANLGQARAYMAKTLLGAAARKAKLEIIDNPNDAEMAIVLGDSIPNDSALNGKNVWLGDISRAVAHPELFLSEAKGHAKPYTAPVAATAPVAASGPKRVVAVTACPTGVAHTFMAAEAIETEAKKRGWWVKVETRGSVGAGNAITPEEVAAADLVIVAADIEVDLAKFAGKPMYRTSTGLALKKTAQELDKAVAEATPYEPAGKAQTATTESKKESAGAYRHLLTGVSYMLPMVVAGGLCIALSFAFGIEAFKEPGTLAAALMQIGGGSAFALMVPVLAGYIAFSIADRPGLTPGLIGGMLAVSTGSGFIGGIIAGFLAGYIAKLISTQLKLPQSMEALKPILIIPLISSLVVGLAMIYLIGKPVAGILEGLTHWLQTMGTANAVLLGAILGGMMCTDMGGPVNKAAYAFGVGLLSTQTYGPMAAIMAAGMVPPLAMGLATMVARRKFDKAQQEGGKAALVLGLCFISEGAIPFAARDPMRVLPCCIVGGALTGAISMAIGAKLMAPHGGLFVLLIPGAITPVLGYLVAIIAGTLVAGLAYAFLKRPEVDAVAKAA	6.73 ± 0.62	6.11 ± 0.28	11.6 ± 0.25	13.4 ± 0.7		5.76 ± 0.27	5.89 ± 0.43	3.54 ± 0.33	5.89 ± 0.44	6.29 ± 0.29	11.9 ± 0.6	5.956 ± 0.014
MKTLNRRDFPGAQYPERIIQFGEGNFLRAFVDWQIDLLNEHTDLNSGVVVVRPIETSFPPSLSTQDGLYTTIIRGLNEKGEAVSDARLIRSVNREISVYSEYDEFLKLAHNPEMRFVFSNTTEAGISYHAGDKFDDAPAVSYPAKLTRLLFERFSHFNGALDKGWIIIPCELIDYNGDALRELVLRYAQEWALPEAFIQWLDQANSFCSTLVDRIVTGYPRDEVAKLEEELGYHDGFLDTAEHFYLFVIQGPKSLATELRLDKYPLNVLIVDDIKPYKERKVAILNGAHTALVPVAFQAGLDTVGEAMNDAEICAFVEKAIYEEIIPVLDLPRDELESFASAVTGRFRNPYIKHQLLSIALNGMTKFRTRILPQLLAGQKANGTLPARLTFALAALIAFYRGERNGETYPVQDDAHWLERYQQLWSQHRDRVIGTQELVAIVLAEKDHWEQDLTQVPGLVEQVANDLDAILEKGMREAVRPLC [P0A6L7]		4.58 ± 0.071		8.15 ± 1.3				3.15 ± 0.18		5.26 ± 0.51		
MKTLSPAVITLLWRQDAAEFYFSRLSHLPWAMLLHSGYADHPYSRFDIVVAEPICTLTTFGKETVVSESEKRTTTTDDPLQVLQQVLDRADIRPTHNEDLPFQGGALGLFGYDLGRRFESLPEIAEQDIVLPDMAVGIYDWALIVDHQRHTVSLLSHNDVNARRAWLESQQFSPQEDFTLTSDWQSNMTREQYGEKFRQVQEYLHSGDCYQVNLAQRFHATYSGDEWQAFLQLNQANRAPFSAFLRLEQGAILSLSPERFILCDNSEIQTRPIKGTLPRLPDPQEDSKQAVKLANSAKDRAENLMIVDLMRNDIGRVAVAGSVKVPELFVVEPFPAVHHLVSTITAQLPEQLHASDLLRAAFPGGSITGAPKVRAMEIIDELEPQRRNAWCGSIGYLSFCGNMDTSITIRTLTAINGQIFCSAGGGIVADSQEEAEYQETFDKVNRILKQLEK	5 ± 0.22	5.38 ± 0.12	7.82 ± 0.28	11 ± 0.69	4.56 ± 0.35	4.5 ± 0.1	4.47 ± 0.21	3.57 ± 0.57	4.31 ± 0.16	6.33 ± 0.27	12.2 ± 1.5	4.358 ± 0.037
MKTMLAAYLPGNSTVDLREVAVPTPGINQVLIKMKSSGICGSDVHYIYHQHRATAAAPDKPLYQGFINGHEPCGQIVAMGQGCRHFKEGDRVLVYHISGCGFCPNCRRGFPISCTGEGKAAYGWQRDGGHAEYLLAEEKDLILLPDALSYEDGAFISCGVGTAYEGILRGEVSGSDNVLVVGLGPVGMMAMMLAKGRGAKRIIGVDMLPERLAMAKQLGVMDHGYLATTEGLPQIIAELTHGGADVALDCSGNAAGRLLALQSTADWGRVVYIGETGKVEFEVSADLMHHQRRIIGSWVTSLFHMEKCAHDLTDWKLWPRNAITHRFSLEQAGDAYALMASGKCGKVVINFPD	4.41 ± 0.15	2.74	3.6 ± 0.11	5.33 ± 3.6	2.87	2.619 ± 0.012	1.84 ± 1.1		2.17 ± 0.04	4.27 ± 0.51	8.54 ± 2.2	2.466 ± 0.011
MKTPLVTREGYEKLKQELNYLWREERPEVTKKVTWAASLGDRSENADYQYNKKRLREIDRRVRYLTKCLENLKIVDYSPQQEGKVFFGAWVEIENDDGVTHRFRIVGYDEIFGRKDYISIDSPMARALLKKEVGDLAVVNTPAGEASWYVNAIEYVKP	4.94 ± 0.26	4.63 ± 0.26	5.226 ± 0.025	7.33 ± 1.7	3.85 ± 0.086	4.34 ± 0.27	3.07 ± 0.3	2.83 ± 0.18	3.48 ± 0.33	4.65 ± 0.57	8.01 ± 0.72	3.36 ± 0.21
MKTRTQQIEELQKEWTQPRWEGITRPYSAEDVVKLRGSVNPECTLAQLGAAKMWRLLHGESKKGYINSLGALTGGQALQQAKAGIEAVYLSGWQVAADANLAASMYPDQSLYPANSVPAVVERINNTFRRADQIQWSAGIEPGDPRYVDYFLPIVADAEAGFGGVLNAFELMKAMIEAGAAAVHFEDQLASVKKCGHMGGKVLVPTQEAIQKLVAARLAADVTGVPTLLVARTDADAADLITSDCDPYDSEFITGERTSEGFFRTHAGIEQAISRGLAYAPYADLVWCETSTPDLELARRFAQAIHAKYPGKLLAYNCSPSFNWQKNLDDKTIASFQQQLSDMGYKFQFITLAGIHSMWFNMFDLANAYAQGEGMKHYVEKVQQPEFAAAKDGYTFVSHQQEVGTGYFDKVTTIIQGGTSSVTALTGSTEESQF [P0A9G6]	3.78 ± 0.38	4.78 ± 0.25	3.15 ± 0.29	7.76 ± 0.96	3.26 ± 0.34	2.71 ± 0.22	2.51 ± 0.07	3.19 ± 0.085	3.01 ± 0.6	5.05 ± 0.28	11.2 ± 3.2	2.33 ± 0.14
MKTSVRIGAFEIDDGELHGESPGDRTLTIPCKSDPDLCMQLDAWDAETSIPALLNGEHSVLYRTRYDQQSDAWIMRLA	2.16 ± 0.13	1.846 ± 0.018	0.89	2.06	1.58	1.83 ± 1.1	0.479 ± 0.045	1.04 ± 0.18	0.85	0.882 ± 0.16	1.16	0.651
MKTYQGTHGVHILEYQSKINKLLCYLTNRYPRLIAVRVDLHYPKIVDNGDNICCFPNLEPGVISRMRESLRAKLEADRTRKVREDKRIYRCPLFIIWAKEYSESGKCHYHICLLFNKDAYYHLGDYDQDDNLRGMITGAWYSALRLERDDHPGLVHFPENCKYVLDTNSTDFQQNYQALLTRLDYLTKVESKVFGEGDRNFGCSQIEL				> 16								
MKVAKDLVVSLAYQVRTEDGVLVDESPVSAPLDYLHGHGSLISGLETALEGHEVGDKFDVAVGANDAYGQYDENLVQRVPKDVFMGVDELQVGMRFLAETDQGPVPVEITAVEDDHVVVDGNHMLAGQNLKFNVEVVAIREATEEELAHGHVHGAHDHHHDHDHDGCCGGHGHDHGHEHGGEGCCGGKGNGGCGCH [P0A9K9]	4.87 ± 0.55	4.63 ± 0.15	5.28 ± 0.73	8.14 ± 0.37	4.07 ± 0.042	4.18 ± 0.1	3.3811 ± 0.00031	2.88 ± 0.18	3.47 ± 0.24	4.54 ± 0.53	8.69 ± 0.066	3.46 ± 0.26
MKVLTVFGTRPEAIKMAPLVHALAKDPFFEAKVCVTAQHREMLDQVLKLFSIVPDYDLNIMQPGQGLTEITCRILEGLKPILAEFKPDVVLVHGDTTTTLATSLAAFYQRIPVGHVEAGLRTGDLYSPWPEEANRTLTGHLAMYHFSPTETSRQNLLRENVADSRIFITGNTVIDALLWVRDQVMSSDKLRSELAANYPFIDPDKKMILVTGHRRESFGRGFEEICHALADIATTHQDIQIVYPVHLNPNVREPVNRILGHVKNVILIDPQEYLPFVWLMNHAWLILTDSGGIQEEAPSLGKPVLVMRDTTERPEAVTAGTVRLVGTDKQRIVEEVTRLLKDENEYQAMSRAHNPYGDGQACSRILEALKNNRISL	4.18 ± 0.042	5.8 ± 0.64	8.18 ± 0.94	10.5 ± 2.5	4.52 ± 0.26	4.96 ± 0.82	3.55 ± 0.33	3.23 ± 0.27	4.16 ± 0.4	6.17 ± 0.78	10.1 ± 1.9	4.56 ± 0.14
